From paper PMC10311653

Target: wildtype (WT) human interleukin-1β (human) (UniProt P01584)
Experiment: ELISA; antigen (100 ng) coated on the plate; scFv-mFc added in 3% skim milk in DPBST, 2 h at 37 °C; EC50

B1: E64Kcr-H11-mFc (Fc fusion)
VH: EVQLQQSGAELVKPGASVRLSCTASGFNIKDYYMHWVKQRPEQGLEWIGWIDPENGDTEYAPKFQGKATMTADTSSNTAYLQLSSLTSEDTAVYYCNGYDDYWGQGTTLTVSS
VL: DIVMTQSQKFMSTSVGDRVSVTCKASQNVGTDVAWYQQKPGQSPKALIYSASYHYSGVPDRFTGTGSGTDFTLTISNVRSEDLAEYFCQQYNSYPYTFGGGTKLEIK
- EC50: 17.4 nM
